# Residue numbers refer to the chain shown, from its start.
# B1: NRP1-19 (VHH)
# VHH: EVQLVESGGGLVQPGGSLRLSCAASGIAFRIRTMGWFRQAPGKEREFVAGISRSGASTAYADSVKGRFTISADNSKNTAYLQMNSLKPEDTAVYYCTTDRWYSSNWWGQGTLVTVSS
# B2: NRP1-24 (VHH)
# VHH: EVQLVESGGGLVQPGGSLRLSCAASGFKFNDSYMGWFRQAPGKEREFVATIWWTFDAPYYADSVKGRFTISADNSKNTAYLQMNSLKPEDTAVYYCAVKERSTGWDFAWGQGTLVTVSS
# B3: NRP1-29 (VHH)
# VHH: EVQLVESGGGLVQPGGSLRLSCAASGFTLDNYAMGWFRQAPGKEREFVARITSGGDTTYYADSVKGRFTISADNSKNTAYLQMNSLKPEDTAVYYCARAYGRGTYDWGQGTLVTVSS
# B4: NRP1-279 (antibody, IgG2, V domains shown)
# VH: EVQLLESGGGLVQPGGSLRLSCAASGFTFSRHAMSWVRQAPGKGLEWVSGISGSGGRTHYADSVKGRFTISRDNSKNTLYLQMNSLRAEDTAVYYCARDPSTIAARRANHYYMDVWGQGTLVTVSS
# VL: DIQMTQSPSSLSASVGDRVTITCRTSQSISNFLNWYQQKPGKAPKLLIYRASTLQTGVPSRFSGSGSGTDFTLTISSLQPEDFATYYCQQSYKTPRTFGGGTKVEIK
# B5: NRP1-286 (antibody, IgG2, V domains shown)
# VH: EVQLLESGGGLVQPGGSLRLSCAASGFTLSAYAMNWVRQAPGKGLEWVSSISGSGGATYYADSVKGRFTISRDNSKNTLYLQMNSLRAEDTAVYYCARVMKTTRRIVGRRLRKGDGLDVWGQGTLVTVSS
# VL: B4 VL with T25A, S30R, F32N, N34S, R50A, T53S, Y92F, K93T, T94I
# B6: NRP1-290 (antibody, IgG2, V domains shown)
# VH: EVQLLESGGGLVQPGGSLRLSCAASGFTFRNYAMTWVRQAPGKGLEWVSGISGSGGSTYYSDSVKGRFTISRDNSKNTLYLQMNSLRAEDTAVYYCARGRRGMPTPDTVRKMSKSHLYFDSWGQGTLVTVSS
# VL: B4 VL with N31R, F32Y, R50G, T56S, S91N, K93I, T94I, R96W
# B7: NRP1-284 (antibody, IgG2, V domains shown)
# VH: EVQLLESGGGLVQPGGSLRLSCAASGFTFSSSAMNWVRQAPGKGLEWVSAITSSGGSTYYADSVKGRFTISRDNSKNTLYLQMNSLRAEDTAVYYCARVTKMSPRSVGRRLRKGDGLDVWGQGTLVTVSS
# VL: B4 VL with T25A, N31R, F32S, N34S, R50S, T53R, T56S, Q89L, K93S, T94S
# B8: NRP1-299 (antibody, IgG2, V domains shown)
# VH: EVQLLESGGGLVQPGGSLRLSCAASGFTFRRYAMSWVRQAPGKGLEWVATISGSGGSTYYADSVKGRFTISRDNSKNTLYLQMNSLRAEDTAVYYCARGGNGSNRRPSLLPRNRAAAIGFESAFDVWGQGTLVTVSS
# VL: B4 VL with T25A, S28T, S30A, F32Y, T53R, T56S, K93N, R96Y
# B9: NRP1-292 (antibody, IgG2, V domains shown)
# VH: EVQLLESGGGLVQPGGSLRLSCAASGFTLSSYAMAWVRQAPGKGLEWVSAIRGSGGTTYYADSVKGRFTISRDNSKNTLYLQMNSLRAEDTAVYYCARRGRAPRMVRGVVNRRPYYFDYWGQGTLVTVSS
# VL: B4 VL with S30A, N31T, F32Y, R50G, T53R, L54S, T56S, K93F, R96P
# B10: NRP1-281 (antibody, IgG2, V domains shown)
# VH: EVQLLESGGGLVQPGGSLRLSCAASGFTFRSLAVSWVRQAPGKGLEWVSTITGSGGATYYADSVKGRFTISRDNSKNTLYLQMNSLRAEDTAVYYCVRALAGRRDHWGQGTLVTVSS
# VL: DIQMTQSPSSLSASVGDRVTITCRASQSIRTSLNWYQQKPGKAPKLLIYAASALHSGVPSRFSGSGSGTDFTLTISSLQPEDFATYYCQQSYSTLPITFGGGTKVEIK
# B11: NRP1-289 (antibody, IgG2, V domains shown)
# VH: EVQLLESGGGLVQPGGSLRLSCAASGFTISSSAMGWVRQAPGKGLEWVSALSGSGGSKYYADSVKGRFTISRDNSKNTLYLQMNSLRAEDTAVYYCAKEALPRASRRAAAVRYFHHWGQGTLVTVSS
# VL: DIQMTQSPSSLSASVGDRVTITCRASQNIVRYLNWYQQKPGKAPKLLIYTASNLQTGVPSRFSGSGSGTDFTLTISSLQPEDFATYYCQESYSRTFGGGTKVEIK
# B12: NRP1-26 (VHH)
# VHH: EVQLVESGGGLVQPGGSLRLSCAASGRTFRPYRMGWFRQAPGKEREWISTIYSNGHTYYADSVKGRFTISADNSKNTAYLQMNSLKPEDTAVYYCAAQRRWSQDWGQGTLVTVSS
# B13: NRP1-288 (antibody, IgG2, V domains shown)
# VH: EVQLLESGGGLVQPGGSLRLSCAASGFTFSTFAMSWVRQAPGKGLEWVSTISGSGTSTYYADSVKGRFTISRDNSKNTLYLQMNSLRAEDTAVYYCARFPGDRGYYHYYMDVWGQGTLVTVSS
# VL: DIQMTQSPSSLSASVGDRVTITCRASQSIARYLNWYQQKPGKAPKLLIYRASRLQSGVPSRFSGSGSGTDFALTISSLQPEDFATYYCQQSFSPPFTFGGGTKVEIK
# B14: NRP1-28 (VHH)
# VHH: EVQLVESGGGLVQPGGSLRLSCAASGFTRSYYTMGWFRQAPGKEREFVAAMNWSGSSTVYADSVKGRFTISADNSKNTAYLQMNSLKPEDTAVYYCAKDTGSPKNYYYYYGMDVWGQGTLVTVSS
# B15: NRP1-3 (VHH)
# VHH: EVQLVESGGGLVQPGGSLRLSCAASGEPTFSSVAMGWFRQAPGKEREWVAEIYPSGSTVYADSVKGRFTISADNSKNTAYLQMNSLKPEDTAVYYCAKTNWNDWGAFDIWGQGTLVTVSS
# B16: NRP1-285 (antibody, IgG2, V domains shown)
# VH: EVQLLESGGGLVQPGGSLRLSCAASGFTLSNYGMSWVRQAPGKGLEWVSTISGSGSGTYYADSVKGRFTISRDNSKNTLYLQMNSLRAEDTAVYYCARAGKAFDYWGQGTLVTVSS
# VL: DIQMTQSPSSLSASVGDRVTITCRASQSVSSYLSWYQQKPGKAPKLLIYAATSLESGVPSRFSGSGSGTDFTLTISSLQPEDFATYYCQQSYRTPLTFGGGTKVEIK
# B17: NRP1-287 (antibody, IgG2, V domains shown)
# VH: EVQLLESGGGLVQPGGSLRLYCAASGFTFGSYGMSWVRQAPGKGLEWVSSISGSGGSTYYTDSVKGRFTISRDNSKNTLYLQMNSLRAEDTAVYYCARDLARGTMPRGVIIPHNWFDPWGQGTLVTVSS
# VL: B16 VL with S28T, V29I, S31N, L33V, S34N, T52S, E55H, S56A, S91G, R93S
# B18: NRP1-21 (VHH)
# VHH: EVQLVESGGGLVQPGGSLRLSCAASGRSRYGMGWFRQAPGKEREFVAAITRSGKTTYYADSVKGRFTISADNSKNTAYLQMNSLKPEDTAVYYCARRLLSGSPSRSYYFDYWGQGTLVTVSS
# B19: NRP1-20 (VHH)
# VHH: EVQLVESGGGLVQPGGSLRLSCAASGSTFSLFAMGWFRQAPGKEREFVAAISRSGGLTSYADSVKGRFTISADNSKNTAYLQMNSLKPEDTAVYYCAKAAGDWTYDEDYYYMDVWGQGTLVTVSS
# Target: T1, neuropilin-1 (NRP1) on HEK293 cells overexpressing NRP1 (UniProt O14786 22-923, limits assumed)
# T1 construct: whole, on cells
# Test: flow cytometry, HEK293-NRP1 vs HEK293
row,Binder,100 nM FACS (MFI Ratio)
1,B1,420
2,B2,6.4
3,B3,26
4,B4,0.7
5,B5,1.4
6,B6,0.6
7,B7,1
8,B8,2.5
9,B9,0.4
10,B10,1.4
11,B11,0.9
12,B12,0.9
13,B13,3.9
14,B14,33
15,B15,13.4
16,B16,1.3
17,B17,0.4
18,B18,1
19,B19,50.9

# Reference: patent publication US20230265198A1 (TWIST BIOSCIENCE, published 2023)
